In article PMC6802964:

Columns and labels:
[1] = molecular target: T1, CyPet–Myo1^IQ12–YPet FRET reporter protein (S. pombe); assay: other fluorescence titration; change of the CyPet-YPet FRET signal of the IQ-FRET protein (1 µM by the methods, 0.5 µM by the legend) with varying concentrations of Cam1 or Cam2; 140 mM KCl, 20 mM MOPS pH 7.0, with or without 2 mM MgCl2, 2 mM EGTA (absence of calcium)
T1 sequence (Q9Y7Z8 whole entry, looked up): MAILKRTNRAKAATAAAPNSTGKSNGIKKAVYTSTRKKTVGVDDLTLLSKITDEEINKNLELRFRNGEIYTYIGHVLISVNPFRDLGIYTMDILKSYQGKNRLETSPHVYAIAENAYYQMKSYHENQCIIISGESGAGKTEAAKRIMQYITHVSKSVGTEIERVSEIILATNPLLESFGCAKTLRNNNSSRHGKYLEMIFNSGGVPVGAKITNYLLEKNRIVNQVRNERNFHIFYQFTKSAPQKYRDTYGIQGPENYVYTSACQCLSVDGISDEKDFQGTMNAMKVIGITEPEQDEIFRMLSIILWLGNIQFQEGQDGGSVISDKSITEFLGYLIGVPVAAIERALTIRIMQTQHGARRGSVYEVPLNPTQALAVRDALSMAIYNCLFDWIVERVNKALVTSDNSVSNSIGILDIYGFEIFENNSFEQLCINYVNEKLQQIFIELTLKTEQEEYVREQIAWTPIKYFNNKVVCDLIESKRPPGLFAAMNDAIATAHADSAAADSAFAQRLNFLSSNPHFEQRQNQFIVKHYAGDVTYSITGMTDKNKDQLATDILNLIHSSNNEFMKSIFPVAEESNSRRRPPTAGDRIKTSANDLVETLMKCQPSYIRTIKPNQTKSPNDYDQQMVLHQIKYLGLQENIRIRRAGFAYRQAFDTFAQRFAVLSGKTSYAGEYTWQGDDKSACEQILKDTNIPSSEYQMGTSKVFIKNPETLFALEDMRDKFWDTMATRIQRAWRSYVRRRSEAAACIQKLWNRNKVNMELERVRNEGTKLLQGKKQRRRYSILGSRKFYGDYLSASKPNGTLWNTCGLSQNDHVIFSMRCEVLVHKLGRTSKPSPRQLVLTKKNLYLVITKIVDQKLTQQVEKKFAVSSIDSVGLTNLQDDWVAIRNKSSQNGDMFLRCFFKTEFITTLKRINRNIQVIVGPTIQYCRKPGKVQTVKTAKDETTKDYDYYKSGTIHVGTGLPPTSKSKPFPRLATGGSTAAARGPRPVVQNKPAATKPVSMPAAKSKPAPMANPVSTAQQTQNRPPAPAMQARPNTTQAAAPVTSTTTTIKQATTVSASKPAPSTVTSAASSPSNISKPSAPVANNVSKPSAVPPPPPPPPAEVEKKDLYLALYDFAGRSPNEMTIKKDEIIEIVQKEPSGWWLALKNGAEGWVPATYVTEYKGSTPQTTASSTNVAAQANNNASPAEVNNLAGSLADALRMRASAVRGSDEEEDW

[2] = molecular target: T2, CyPet–Myo1^IQ1–YPet FRET reporter protein (S. pombe); assay: as above
T2 sequence (Q9Y7Z8 whole entry, looked up): T1 sequence (Q9Y7Z8 whole entry, looked up)

KD of the first binding event [1]: < 100 nM
KD of the second binding event [1]: 680 nM
Kd [2]: < 100 nM
Substance: Cam1 (wild type, amino-terminally acetylated fission yeast calmodulin) (from UniProt P05933 1-150) (natural protein)
